The values that follow come from patent US20220356230A1 (published 2022).

The target of the experiment is Human SARS Coronavirus Spike S1 Subunit Protein (His Tag) (Sino 40150-V08B1) (Human SARS Coronavirus, UniProt P59594 14-667). The experiment is described as follows: Luminex bead binding, antigen on microspheres, antibody supernatant.

B1: mAb10989 (antibody, V domains shown)
VH: QVQLVQSGAEVKKPGASVKVSCKASGYIFTGYYMHWVRQAPGQGLEWMGWINPNSGGANYAQKFQGRVTLTRDTSITTVYMELSRLRFDDTAVYYCARGSRYDWNQNNWFDPWGQGTLVTVSS
VL: QSALTQPASVSGSPGQSITISCTGTSSDVGTYNYVSWYQQHPGKAPKLMIFDVSNRPSGVSDRFSGSKSGNTASLTISGLQAEDEADYYCSSFTTSSTVVFGGGTKLTVLG
In turn, B1 had an MFI of 21 MFI.

B2: mAb10967 (antibody, V domains shown)
VH: EVQLVESGGGLVQPGGSLRLSCAASGFTVSSNYMSWVRQAPGKGLEWVSVIYPGGSTFYADSVKGRFTISRDNSKNTLYLQMNSLRAEDTAVYYCARDQRDFAWGQGTLVTVSS
VL: DIQMTQSPSSLSASVGDRVTITCQASQDISNYLNWYQQKPGKAPKLLIYDASNLETGVPSRFSGSGSGTDFTFTISGLQPEDIATYYCQQYDNLPPTFGQGTRLEIKR
B2 gave an MFI of 21 MFI.

B3: mAb10954 (antibody, V domains shown)
VH: EVQLVESGGGLVQPGGSLRLSCAASGITVSSNYMSWVRQAPGKGLEWVSLIYSGGSTYYADSVKGRFTISRDNSKNTLYLQMNSLRVEDTAVYYCARDHGMAAAGYNYWGQGTLVTVSS
VL: DIQMTQSPSSLSASVGDRVTITCQASQDINKYLNWYQQKPGKAPKLLIYDASNLETGVPSRFSGSGSGTDFTFTINSLQPEDFATYFCQQYDNLPPAFGQGTKVEIKR
In turn, B3 had an MFI of 15 MFI.

B4: mAb10965 (antibody, V domains shown)
VH: EVQLVESGGGLIQPGGSLRLSCAASVFTVSYNYMSWVRQAPGKGLEWVSVIYSGGSTYYADSVKGRFTISRDNSKNTLYLQMNSLRAEDTAVYYCARALPGWGGSFEYFDYWGQGTLVTVSS
VL: not shown
As for B4, the MFI worked out at 16 MFI.
